From PMC11215833

Target: PybHLH3: Nluc (pear 'Red Zaosu' (P. pyrifolia × P. communis))

Question: Which dual-luciferase assay, LUC/REN ratio of the PyUFGT promoter activated by PyMYB10 with PybHLH3; ratio of PyMYB107:PyMYB10 from 0:1 (0.48) to 1:1 (0.26) (LUC/REN ratio) does the source give for “PyMYB107 (co-expressed as competitor) (natural protein)” here?
Answer: 0.26
